# Source: article PMC5713450
# Columns and labels:
# [1] = target: Protein A (cited studies) (UniProt P02976); experiment: RIFTS; settings: aptamer immobilized on porous silicon, h 2.61 +/- 0.69, 3' amino, BB: 100 mM NaCl, 20 mM Tris, 10 mM MgCl2, 5 mM KCl, 1 mM CaCl2, pH 7.6, MST in BBT (0.005% Tween 20) at 25 C, 2bind MST with 0.05% Tween 20, EIS in BB + 2 mM …; cited from earlier work
# Protein A [2] = target: Protein A (UniProt P02976); experiment: MST; settings: BB: 100 mM NaCl, 20 mM Tris, 10 mM MgCl2, 5 mM KCl, 1 mM CaCl2, pH 7.6, MST in BBT (0.005% Tween 20) at 25 C, 2bind MST with 0.05% Tween 20, EIS in BB + 2 mM …
# [3] = target: Protein A (cited studies) (UniProt P02976); experiment: SPR; settings: BB: 100 mM NaCl, 20 mM Tris, 10 mM MgCl2, 5 mM KCl, 1 mM CaCl2, pH 7.6, MST in BBT (0.005% Tween 20) at 25 C, 2bind MST with 0.05% Tween 20, EIS in BB + 2 mM …, cited from earlier work
# [4] = target: Protein A (cited studies) (UniProt P02976); experiment: MST; settings: 5' thiol; BB: 100 mM NaCl, 20 mM Tris, 10 mM MgCl2, 5 mM KCl, 1 mM CaCl2, pH 7.6; MST in BBT (0.005% Tween 20) at 25 C, 2bind MST with 0.05% Tween 20; EIS in BB + 2 mM …; cited from earlier work
# [5] = target: Protein A (cited studies) (UniProt P02976); experiment: ELONA; settings: BB: 100 mM NaCl, 20 mM Tris, 10 mM MgCl2, 5 mM KCl, 1 mM CaCl2, pH 7.6; MST in BBT (0.005% Tween 20) at 25 C, 2bind MST with 0.05% Tween 20; EIS in BB + 2 mM …; cited from earlier work
# Protein A [6] = target: Protein A (UniProt P02976); experiment: EIS; settings: apparent; 2 mM ferri-/ferrocyanide; Hill h 1.14 +/- 0.15; 3' C6 spacer and thiol; immobilized on gold with MCH; BB: 100 mM NaCl, 20 mM Tris, 10 mM MgCl2, 5 mM KCl, 1 mM CaCl2, pH 7.6; MST in BBT (0.005% Tween 20) at 25 C, 2bind MST with 0.05% Tween 20; EIS in BB + 2 mM …
sequence,measurement,setting,value
"ATACCAGCTTATTCAATTAGCAACATGAGGGGGATAGAGGGGGTGGGTTCTCTCGGCT [PAA, 3'-amino]",Kd,[1],14 µM
"ATACCAGCTTATTCAATTAGCAACATGAGGGGGATAGAGGGGGTGGGTTCTCTCGGCT [PAA, 3'-fluorescent]",Kd,"Protein A [2]; BB + 0.05% Tween 20 (2bind), 3' C6 spacer, thiol",0.111 µM
same,Kd,"Protein A [2]; BBT + 2 mM ferri-/ferrocyanide, 3' C6 spacer, thiol",0.0164 µM
same,Kd,"Protein A [2]; BBT, 0.005% Tween 20, no ferri-/ferrocyanide, 3' C6 spacer, thiol",0.0224 µM
"ATACCAGCTTATTCAATTAGCAACATGAGGGGGATAGAGGGGGTGGGTTCTCTCGGCT [PAA, 5'-fluorescent]",Kd,[3]; 5' thiol,1.92 µM
same,Kd,"Protein A [2]; BB + 0.05% Tween 20 (2bind), 5' thiol",0.116 µM
same,Kd,[4],0.0947 µM
"ATACCAGCTTATTCAATTAGCAACATGAGGGGGATAGAGGGGGTGGGTTCTCTCGGCT [PAA, 5'-biotin]",Kd,[5],0.0237 µM
"ATACCAGCTTATTCAATTAGCAACATGAGGGGGATAGAGGGGGTGGGTTCTCTCGGCT [PAA (PA#2/8[S1-58]), 3'-thiol on gold]",Kd,Protein A [6],0.0185 µM
"ATACCAGCTTATTCAATTAGCAACATGAGGGGGATAGAGGGGGTGGGTTCTCTCGGCT [PAA, 3'-biotin]",Kd,[3],0.287 µM
same,Kd,[5],0.0113 µM
